According to patent US20230218739A1:
Where “and” joins values, the source holds several entries; their conditions need not be identical. Equal entries are not always repeated. Where two headings read alike, the source gives them in different places.

Legend:
[1] = biological target: Rabies G-Trimer (CTN-1 Strain) (ectodomain of rabies CTN-1 strain G protein fused in frame to Trimer-Tag) (Rabies virus CTN-1 strain)
[2] = biological target: Rabies G-Trimer (CTN-1 Strain) (ectodomain of rabies CTN-1 strain G protein fused in frame to Trimer-Tag) (Rabies virus CTN-1 strain); remark: listed apart in the source
[3] = biological target: Rabies G-Trimer (CTN-1 Strain) (ectodomain of rabies CTN-1 strain G protein fused in frame to Trimer-Tag) (Rabies virus CTN-1 strain); remark: listed apart in the source
[4] = biological target: recombinant HA produced from insect cells; test: ForteBio Octet molecular interaction analysis
[5] = biological target: Influenza HA-Trimer (exemplary fusion protein comprising HA (Influenza A virus A/California/07/2009-pdm (H1N1))); test: biolayer interferometry (Octet), […]

With HDCV the p75 Competitive titer IC50 GMT [1] was 87, the p75 Competitive titer IC50 GMT [2] was 30 and 25 and the CTN-1 Specific IgG titer (End point) [3] was 57 and 33.

“CR6261 (broadly neutralizing anti-HA antibody, ACRO Biosystems)” was tested, and the Kd [4] was 3.8 nM and the Kd [5] was < 1 pM.
